Measurements from article PMC5722895, “The dynamic dimer structure of the chaperone Trigger Factor” (Nature Communications, 2017).

Columns and labels:
[1] = molecular target: the molecule itself; test: SEC-MALS; concentration series of full-length TF and full-length mutants alone, 26 °C, sample buffer (20 mM K-phosphate pH 6.5, 100 mM KCl, 0.5 mM EDTA); fit to a fast monomer-dimer equilibrium; dimer to monomers
[2] = molecular target: the molecule itself; test: SEC-MALS; sample buffer (20 mM K-phosphate pH 6.5, 100 mM KCl, 0.5 mM EDTA); 6 °C for the individual domains; concentration series fitted to a fast monomer–dimer equilibrium; dimer to monomers

Protein	Kd [1]	Kd [2]
TF(3A) with mutation set mutC (M140E) (natural protein, E. coli, UniProt P0A850 1-432, looked up, Trigger Factor, E. coli, residues 1-432, TF(3A) background; not shown: His6, N-terminal, cleaved) MQVSVETTQGLGRRVTITIAADSIETAVKSELVNVAKKVRIDGAAAGKVPMNIVAQRYGASVRQDVLGDLMSRNFIDAIIKEKINPAGAPTYVPGEYKLGEDFTYSVEFEVYPEVELQGLEAIEVEKPIVEVTDADVDGELDTLRKQQATWKEKDGAVEAEDRVTIDFTGSVDGEEFEGGKASDFVLAMGQGRMIPGFEDGIKGHKAGEEFTIDVTFPEEYHAENLKGKAAKFAINLKKVEERELPELTAEFIKRFGVEDGSVEGLRAEVRKNMERELKSAIRNRVKSQAIEGLVKANDIDVPAALIDSEIDVLRRQAAQRFGGNEKQALELPRELFEEQAKRRVVVGLLLGEVIRTNELKADEERVKGLIEEMASAYEDPKEVIEFYSKNKELMDNMRNVALEEQAVEAVLAKAKVTEKETTFNELMNQQA	28 µM	–
TF(3A) variant TF(F44A, R45A, K46A) (natural protein, E. coli, UniProt P0A850 1-432, looked up, not shown: His6, N-terminal, cleaved) MQVSVETTQGLGRRVTITIAADSIETAVKSELVNVAKKVRIDGAAAGKVPMNIVAQRYGASVRQDVLGDLMSRNFIDAIIKEKINPAGAPTYVPGEYKLGEDFTYSVEFEVYPEVELQGLEAIEVEKPIVEVTDADVDGMLDTLRKQQATWKEKDGAVEAEDRVTIDFTGSVDGEEFEGGKASDFVLAMGQGRMIPGFEDGIKGHKAGEEFTIDVTFPEEYHAENLKGKAAKFAINLKKVEERELPELTAEFIKRFGVEDGSVEGLRAEVRKNMERELKSAIRNRVKSQAIEGLVKANDIDVPAALIDSEIDVLRRQAAQRFGGNEKQALELPRELFEEQAKRRVVVGLLLGEVIRTNELKADEERVKGLIEEMASAYEDPKEVIEFYSKNKELMDNMRNVALEEQAVEAVLAKAKVTEKETTFNELMNQQA	1.1 µM	–
TF(3A) with mutation set mutD (R316A, R321A) (natural protein, E. coli, UniProt P0A850 1-432, looked up, Trigger Factor, E. coli, residues 1-432, TF(3A) background; not shown: His6, N-terminal, cleaved) MQVSVETTQGLGRRVTITIAADSIETAVKSELVNVAKKVRIDGAAAGKVPMNIVAQRYGASVRQDVLGDLMSRNFIDAIIKEKINPAGAPTYVPGEYKLGEDFTYSVEFEVYPEVELQGLEAIEVEKPIVEVTDADVDGMLDTLRKQQATWKEKDGAVEAEDRVTIDFTGSVDGEEFEGGKASDFVLAMGQGRMIPGFEDGIKGHKAGEEFTIDVTFPEEYHAENLKGKAAKFAINLKKVEERELPELTAEFIKRFGVEDGSVEGLRAEVRKNMERELKSAIRNRVKSQAIEGLVKANDIDVPAALIDSEIDVLRAQAAQAFGGNEKQALELPRELFEEQAKRRVVVGLLLGEVIRTNELKADEERVKGLIEEMASAYEDPKEVIEFYSKNKELMDNMRNVALEEQAVEAVLAKAKVTEKETTFNELMNQQA	22 µM	–
TF(3A) with mutation sets mutD + mutC (R316A, R321A, M140E) (natural protein, E. coli, UniProt P0A850 1-432, looked up, Trigger Factor, E. coli, residues 1-432, TF(3A) background; also called mutC + mutD; not shown: His6, N-terminal, cleaved) MQVSVETTQGLGRRVTITIAADSIETAVKSELVNVAKKVRIDGAAAGKVPMNIVAQRYGASVRQDVLGDLMSRNFIDAIIKEKINPAGAPTYVPGEYKLGEDFTYSVEFEVYPEVELQGLEAIEVEKPIVEVTDADVDGELDTLRKQQATWKEKDGAVEAEDRVTIDFTGSVDGEEFEGGKASDFVLAMGQGRMIPGFEDGIKGHKAGEEFTIDVTFPEEYHAENLKGKAAKFAINLKKVEERELPELTAEFIKRFGVEDGSVEGLRAEVRKNMERELKSAIRNRVKSQAIEGLVKANDIDVPAALIDSEIDVLRAQAAQAFGGNEKQALELPRELFEEQAKRRVVVGLLLGEVIRTNELKADEERVKGLIEEMASAYEDPKEVIEFYSKNKELMDNMRNVALEEQAVEAVLAKAKVTEKETTFNELMNQQA	260 µM	–
TF(3A) with mutation sets mutB + mutC (M374A, Y378A, V384A, F387A, M140E) (natural protein, E. coli, UniProt P0A850 1-432, looked up, Trigger Factor, E. coli, residues 1-432, TF(3A) background; also called mutC + mutB; not shown: His6, N-terminal, cleaved) MQVSVETTQGLGRRVTITIAADSIETAVKSELVNVAKKVRIDGAAAGKVPMNIVAQRYGASVRQDVLGDLMSRNFIDAIIKEKINPAGAPTYVPGEYKLGEDFTYSVEFEVYPEVELQGLEAIEVEKPIVEVTDADVDGELDTLRKQQATWKEKDGAVEAEDRVTIDFTGSVDGEEFEGGKASDFVLAMGQGRMIPGFEDGIKGHKAGEEFTIDVTFPEEYHAENLKGKAAKFAINLKKVEERELPELTAEFIKRFGVEDGSVEGLRAEVRKNMERELKSAIRNRVKSQAIEGLVKANDIDVPAALIDSEIDVLRRQAAQRFGGNEKQALELPRELFEEQAKRRVVVGLLLGEVIRTNELKADEERVKGLIEEAASAAEDPKEAIEAYSKNKELMDNMRNVALEEQAVEAVLAKAKVTEKETTFNELMNQQA	> 1000 µM	–
TF(3A) with mutation sets mutB + mutD (M374A, Y378A, V384A, F387A, R316A, R321A) (natural protein, E. coli, UniProt P0A850 1-432, looked up, Trigger Factor, E. coli, residues 1-432, TF(3A) background; not shown: His6, N-terminal, cleaved) MQVSVETTQGLGRRVTITIAADSIETAVKSELVNVAKKVRIDGAAAGKVPMNIVAQRYGASVRQDVLGDLMSRNFIDAIIKEKINPAGAPTYVPGEYKLGEDFTYSVEFEVYPEVELQGLEAIEVEKPIVEVTDADVDGMLDTLRKQQATWKEKDGAVEAEDRVTIDFTGSVDGEEFEGGKASDFVLAMGQGRMIPGFEDGIKGHKAGEEFTIDVTFPEEYHAENLKGKAAKFAINLKKVEERELPELTAEFIKRFGVEDGSVEGLRAEVRKNMERELKSAIRNRVKSQAIEGLVKANDIDVPAALIDSEIDVLRAQAAQAFGGNEKQALELPRELFEEQAKRRVVVGLLLGEVIRTNELKADEERVKGLIEEAASAAEDPKEAIEAYSKNKELMDNMRNVALEEQAVEAVLAKAKVTEKETTFNELMNQQA	> 1000 µM	–
TF(3A) with mutation set mutB (M374A, Y378A, V384A, F387A) (natural protein, E. coli, UniProt P0A850 1-432, looked up, Trigger Factor, E. coli, residues 1-432, TF(3A) background; not shown: His6, N-terminal, cleaved) MQVSVETTQGLGRRVTITIAADSIETAVKSELVNVAKKVRIDGAAAGKVPMNIVAQRYGASVRQDVLGDLMSRNFIDAIIKEKINPAGAPTYVPGEYKLGEDFTYSVEFEVYPEVELQGLEAIEVEKPIVEVTDADVDGMLDTLRKQQATWKEKDGAVEAEDRVTIDFTGSVDGEEFEGGKASDFVLAMGQGRMIPGFEDGIKGHKAGEEFTIDVTFPEEYHAENLKGKAAKFAINLKKVEERELPELTAEFIKRFGVEDGSVEGLRAEVRKNMERELKSAIRNRVKSQAIEGLVKANDIDVPAALIDSEIDVLRRQAAQRFGGNEKQALELPRELFEEQAKRRVVVGLLLGEVIRTNELKADEERVKGLIEEAASAAEDPKEAIEAYSKNKELMDNMRNVALEEQAVEAVLAKAKVTEKETTFNELMNQQA	> 1000 µM	–
PPD (149–249) (domain or fragment, E. coli, UniProt P0A850 149-249, looked up, Trigger Factor, E. coli, residues 149-249; also called peptidyl-prolyl isomerase domain; not shown: His tag, N-terminal, cleaved) ATWKEKDGAVEAEDRVTIDFTGSVDGEEFEGGKASDFVLAMGQGRMIPGFEDGIKGHKAGEEFTIDVTFPEEYHAENLKGKAAKFAINLKKVEERELPELT	–	> 5000 µM
SBD–PPD (114–432) (domain or fragment, E. coli, UniProt P0A850 114-432, looked up, Trigger Factor, E. coli, residues 114-432; also called bi-domain construct SBD–PPD; not shown: His tag, N-terminal, cleaved) EVELQGLEAIEVEKPIVEVTDADVDGMLDTLRKQQATWKEKDGAVEAEDRVTIDFTGSVDGEEFEGGKASDFVLAMGQGRMIPGFEDGIKGHKAGEEFTIDVTFPEEYHAENLKGKAAKFAINLKKVEERELPELTAEFIKRFGVEDGSVEGLRAEVRKNMERELKSAIRNRVKSQAIEGLVKANDIDVPAALIDSEIDVLRRQAAQRFGGNEKQALELPRELFEEQAKRRVVVGLLLGEVIRTNELKADEERVKGLIEEMASAYEDPKEVIEFYSKNKELMDNMRNVALEEQAVEAVLAKAKVTEKETTFNELMNQQA	–	> 1000 µM
SBD (114–148/247–432) (domain or fragment, E. coli, UniProt P0A850 114-148, looked up, Trigger Factor, E. coli, residues 114-148 (linker part of the SBD); Trigger Factor, E. coli, residues 247-432 (C-terminal part of the SBD); The PPD (149-246) is left out; not shown: His tag, N-terminal, cleaved) EVELQGLEAIEVEKPIVEVTDADVDGMLDTLRKQQELTAEFIKRFGVEDGSVEGLRAEVRKNMERELKSAIRNRVKSQAIEGLVKANDIDVPAALIDSEIDVLRRQAAQRFGGNEKQALELPRELFEEQAKRRVVVGLLLGEVIRTNELKADEERVKGLIEEMASAYEDPKEVIEFYSKNKELMDNMRNVALEEQAVEAVLAKAKVTEKETTFNELMNQQA	–	> 1000 µM
RBD (residues 1–117) (domain or fragment, E. coli, UniProt P0A850 1-117, looked up, Trigger Factor, E. coli, residues 1-117 (stop codon at position 118); not shown: His tag, N-terminal, cleaved) MQVSVETTQGLGRRVTITIAADSIETAVKSELVNVAKKVRIDGFRKGKVPMNIVAQRYGASVRQDVLGDLMSRNFIDAIIKEKINPAGAPTYVPGEYKLGEDFTYSVEFEVYPEVEL	–	≥ 1500 µM
